Reference: patent publication US20170101455A1

Assays:
Insulin receptor [1] = assay: SPR (BIACORE 3000), insulin receptor immobilised on CM5 chip; Test 2
Insulin receptor [2] = assay: SPR (BIACORE 3000), insulin receptor immobilised on CM5 chip; Test 3
Insulin receptor [3] = assay: SPR (BIACORE 3000), insulin receptor immobilised on CM5 chip; Test 4
Insulin receptor [4] = assay: SPR (BIACORE 3000), insulin receptor immobilised on CM5 chip; Test 5

For “Native insulin-immunoglobulin Fc conjugate”, the Kd (Insulin receptor [1]) was 781 nM, the ka relative to native human insulin (Insulin receptor [1]) was 3.9% and the kd relative to native human insulin (Insulin receptor [1]) was 77.2%. It also gave a koff (Insulin receptor [1]) of 0.0078 s⁻¹, a kon (Insulin receptor [1]) of 9000 M⁻¹ s⁻¹ and a receptor binding affinity (KD) relative to native human insulin (Insulin receptor [1]) of 5.9%. It also gave a Kd (Insulin receptor [2]) of 1240 nM, a ka relative to native human insulin (Insulin receptor [2]) of 2.7% and a kd relative to native human insulin (Insulin receptor [2]) of 54.5%. The koff (Insulin receptor [2]) was 0.00585 s⁻¹, the kon (Insulin receptor [2]) was 5000 M⁻¹ s⁻¹ and the receptor binding affinity (KD) relative to native human insulin (Insulin receptor [2]) was 5.1%. For the same substance, the Kd (Insulin receptor [3]) was 1140 nM, the ka relative to native human insulin (Insulin receptor [3]) was 2.1% and the kd relative to native human insulin (Insulin receptor [3]) was 56.1%. For the same substance, the koff (Insulin receptor [3]) was 0.0069 s⁻¹, the receptor binding affinity (KD) relative to native human insulin (Insulin receptor [3]) was 3.7% and the Kd (Insulin receptor [4]) was 862 nM. It also gave a ka relative to native human insulin (Insulin receptor [4]) of 4.3%, a kd relative to native human insulin (Insulin receptor [4]) of 76.5% and a koff (Insulin receptor [4]) of 0.0074 s⁻¹. The kon (Insulin receptor [4]) was 9000 M⁻¹ s⁻¹ and the receptor binding affinity (KD) relative to native human insulin (Insulin receptor [4]) was 5.9%.
